Experimental data: US20230272045A1

Key:
[1] = biological target: human vitronectin (human) (UniProt P04004); test: ELISA
[2] = biological target: human tenascin C (human) (UniProt P24821); test: ELISA
[3] = biological target: human plasma fibronectin (human) (UniProt P02751); test: ELISA
[4] = biological target: fibrin matrix (UniProt P02671); test: cell-based or functional assay
fibrin matrix, sequence (P02671 other isoform, or with tags, fused parts or gaps, chain 1 of 3): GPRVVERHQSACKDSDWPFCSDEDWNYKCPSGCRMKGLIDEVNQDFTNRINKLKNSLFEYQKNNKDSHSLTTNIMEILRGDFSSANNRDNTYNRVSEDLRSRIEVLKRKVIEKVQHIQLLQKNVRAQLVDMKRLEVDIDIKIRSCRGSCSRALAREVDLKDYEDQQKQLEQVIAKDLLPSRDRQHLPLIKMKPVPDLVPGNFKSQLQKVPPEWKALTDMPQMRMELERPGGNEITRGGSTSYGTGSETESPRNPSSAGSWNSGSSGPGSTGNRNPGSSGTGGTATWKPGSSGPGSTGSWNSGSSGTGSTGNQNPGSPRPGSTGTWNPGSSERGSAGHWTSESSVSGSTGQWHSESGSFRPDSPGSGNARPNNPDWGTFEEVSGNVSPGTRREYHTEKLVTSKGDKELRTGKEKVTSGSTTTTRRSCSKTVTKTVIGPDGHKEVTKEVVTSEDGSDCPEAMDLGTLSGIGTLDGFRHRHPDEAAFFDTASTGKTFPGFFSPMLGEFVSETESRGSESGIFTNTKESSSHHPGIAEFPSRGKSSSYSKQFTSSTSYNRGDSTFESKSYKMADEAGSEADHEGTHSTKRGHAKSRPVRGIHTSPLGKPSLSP
fibrin matrix, sequence (P02675 45-491, chain 2 of 3, further chain): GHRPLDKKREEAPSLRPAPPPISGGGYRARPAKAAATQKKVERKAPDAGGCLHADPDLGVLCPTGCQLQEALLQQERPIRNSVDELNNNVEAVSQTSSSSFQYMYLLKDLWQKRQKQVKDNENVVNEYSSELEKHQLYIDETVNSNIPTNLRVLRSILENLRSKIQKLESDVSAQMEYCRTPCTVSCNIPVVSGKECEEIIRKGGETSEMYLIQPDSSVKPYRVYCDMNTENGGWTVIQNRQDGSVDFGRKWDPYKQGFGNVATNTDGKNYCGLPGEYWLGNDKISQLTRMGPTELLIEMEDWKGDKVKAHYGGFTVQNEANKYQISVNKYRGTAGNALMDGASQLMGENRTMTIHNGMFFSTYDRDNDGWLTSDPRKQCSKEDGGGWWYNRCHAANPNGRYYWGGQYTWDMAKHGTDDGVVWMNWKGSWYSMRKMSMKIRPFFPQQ
fibrin matrix, sequence (P02679 other isoform, or with tags, fused parts or gaps, chain 3 of 3, further chain): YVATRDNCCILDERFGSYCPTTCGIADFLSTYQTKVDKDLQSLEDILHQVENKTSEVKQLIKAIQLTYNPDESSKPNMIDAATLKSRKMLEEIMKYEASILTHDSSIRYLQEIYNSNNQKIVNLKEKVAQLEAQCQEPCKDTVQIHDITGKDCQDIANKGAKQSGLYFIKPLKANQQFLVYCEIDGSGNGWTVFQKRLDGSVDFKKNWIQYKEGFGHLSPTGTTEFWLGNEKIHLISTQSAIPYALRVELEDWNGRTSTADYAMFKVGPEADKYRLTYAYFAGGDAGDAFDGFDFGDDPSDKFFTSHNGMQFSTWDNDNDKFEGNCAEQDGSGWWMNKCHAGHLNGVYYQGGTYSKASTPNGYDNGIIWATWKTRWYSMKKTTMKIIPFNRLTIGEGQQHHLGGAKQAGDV

human plasma fibronectin (human), sequence (P02751 other isoform, or with tags, fused parts or gaps): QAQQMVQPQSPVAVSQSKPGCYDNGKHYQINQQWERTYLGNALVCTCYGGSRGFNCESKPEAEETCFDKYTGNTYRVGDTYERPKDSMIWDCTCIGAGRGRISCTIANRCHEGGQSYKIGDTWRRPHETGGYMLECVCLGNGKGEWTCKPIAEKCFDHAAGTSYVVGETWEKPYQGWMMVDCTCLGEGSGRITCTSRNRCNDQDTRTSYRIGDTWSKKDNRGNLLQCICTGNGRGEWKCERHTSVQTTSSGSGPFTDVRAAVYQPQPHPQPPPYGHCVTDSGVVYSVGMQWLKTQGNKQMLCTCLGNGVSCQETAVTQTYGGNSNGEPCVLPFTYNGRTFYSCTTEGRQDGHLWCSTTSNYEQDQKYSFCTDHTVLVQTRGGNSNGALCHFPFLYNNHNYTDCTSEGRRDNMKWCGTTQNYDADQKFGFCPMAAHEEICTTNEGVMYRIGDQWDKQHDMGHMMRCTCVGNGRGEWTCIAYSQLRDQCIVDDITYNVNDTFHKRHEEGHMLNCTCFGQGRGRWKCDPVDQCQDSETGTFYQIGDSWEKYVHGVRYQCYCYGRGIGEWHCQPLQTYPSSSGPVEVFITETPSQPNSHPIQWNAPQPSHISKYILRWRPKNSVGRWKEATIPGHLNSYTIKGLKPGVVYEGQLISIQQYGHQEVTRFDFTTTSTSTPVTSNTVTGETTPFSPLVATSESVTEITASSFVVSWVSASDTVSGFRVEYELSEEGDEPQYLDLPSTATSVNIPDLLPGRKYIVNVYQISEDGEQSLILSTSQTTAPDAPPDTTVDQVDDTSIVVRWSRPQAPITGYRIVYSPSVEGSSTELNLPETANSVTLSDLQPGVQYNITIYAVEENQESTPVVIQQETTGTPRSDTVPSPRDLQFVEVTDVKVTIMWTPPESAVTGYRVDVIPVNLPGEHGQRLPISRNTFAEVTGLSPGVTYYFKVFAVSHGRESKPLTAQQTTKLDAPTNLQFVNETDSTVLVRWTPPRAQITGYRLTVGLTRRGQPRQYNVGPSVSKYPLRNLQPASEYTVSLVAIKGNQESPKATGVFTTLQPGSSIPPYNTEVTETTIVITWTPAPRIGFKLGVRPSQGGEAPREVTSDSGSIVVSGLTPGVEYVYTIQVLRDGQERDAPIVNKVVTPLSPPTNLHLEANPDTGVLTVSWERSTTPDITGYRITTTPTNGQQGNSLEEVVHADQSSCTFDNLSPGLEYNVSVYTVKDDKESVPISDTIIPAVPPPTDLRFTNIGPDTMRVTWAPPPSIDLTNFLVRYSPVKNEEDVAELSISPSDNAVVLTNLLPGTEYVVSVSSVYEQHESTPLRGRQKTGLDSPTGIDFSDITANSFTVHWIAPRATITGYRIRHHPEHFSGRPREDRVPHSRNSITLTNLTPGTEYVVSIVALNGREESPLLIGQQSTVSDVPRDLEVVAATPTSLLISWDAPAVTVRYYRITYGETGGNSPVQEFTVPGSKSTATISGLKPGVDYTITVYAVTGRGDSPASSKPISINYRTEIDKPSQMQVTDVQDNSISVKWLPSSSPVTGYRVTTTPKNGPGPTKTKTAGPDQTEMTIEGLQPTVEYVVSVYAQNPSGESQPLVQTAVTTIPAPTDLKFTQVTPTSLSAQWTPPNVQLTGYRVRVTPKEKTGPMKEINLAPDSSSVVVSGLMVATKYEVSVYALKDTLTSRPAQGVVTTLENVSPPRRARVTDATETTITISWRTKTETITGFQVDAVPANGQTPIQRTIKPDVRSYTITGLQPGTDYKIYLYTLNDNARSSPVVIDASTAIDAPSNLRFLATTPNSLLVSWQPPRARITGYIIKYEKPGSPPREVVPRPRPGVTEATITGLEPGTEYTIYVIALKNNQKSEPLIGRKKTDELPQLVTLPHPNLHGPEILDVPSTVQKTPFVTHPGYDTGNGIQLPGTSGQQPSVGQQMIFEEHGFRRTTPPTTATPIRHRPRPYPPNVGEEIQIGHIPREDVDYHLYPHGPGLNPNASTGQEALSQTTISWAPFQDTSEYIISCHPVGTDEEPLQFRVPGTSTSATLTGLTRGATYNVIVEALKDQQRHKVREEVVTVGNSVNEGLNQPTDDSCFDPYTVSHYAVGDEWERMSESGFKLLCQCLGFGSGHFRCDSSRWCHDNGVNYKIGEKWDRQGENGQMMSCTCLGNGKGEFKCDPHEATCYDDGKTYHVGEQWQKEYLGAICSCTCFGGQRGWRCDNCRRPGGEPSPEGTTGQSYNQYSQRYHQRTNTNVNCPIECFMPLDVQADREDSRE
human vitronectin (human), sequence (P04004 20-478): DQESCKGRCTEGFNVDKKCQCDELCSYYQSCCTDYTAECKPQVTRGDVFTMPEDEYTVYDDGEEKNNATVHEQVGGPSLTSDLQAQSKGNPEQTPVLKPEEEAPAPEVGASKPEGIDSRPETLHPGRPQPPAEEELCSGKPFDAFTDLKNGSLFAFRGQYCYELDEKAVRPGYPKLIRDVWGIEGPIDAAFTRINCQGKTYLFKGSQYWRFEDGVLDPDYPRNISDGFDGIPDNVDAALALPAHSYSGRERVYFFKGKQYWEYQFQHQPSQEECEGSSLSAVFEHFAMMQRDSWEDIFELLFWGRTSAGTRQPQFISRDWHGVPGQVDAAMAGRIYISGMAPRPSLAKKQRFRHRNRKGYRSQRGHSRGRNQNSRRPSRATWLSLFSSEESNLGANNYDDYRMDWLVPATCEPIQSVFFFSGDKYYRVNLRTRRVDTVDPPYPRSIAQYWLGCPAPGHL

AREG126-138/PDGF-BB (from UniProt P31240 80-190)
Kd [1]: 1.9 nM
Kd [2]: 18.1 nM
Kd [3]: 7.9 nM

PIGF-1 (from UniProt P49763 19-149) (ligand)
release from a fibrin matrix (fraction of the protein dose released) [4]: > 60%
